Assay results published in patent publication US20260151494A1 (ARO BIOTHERAPEUTICS, published 2026).
Changes are numbered by the printed parent chain. Read-outs that look alike come from different tables or passages of the source.

B1: CD71-binding FN3 domain of SEQ ID NO: 540 (designed binder)
chain: MLPAPKNLVVSRVTEDSARLSWTAPDAAFDSFYIAYAEPRPDGEAIILVVPGSERSYDLTGLKPGTEYSVLIHGVKGGLLSSPLDAGFTT
notes: Tencon-based FN3 domain
B2: CD71-binding FN3 domain of SEQ ID NO: 234 (designed binder)
chain: MSLPAPKNLVVSRVTEDSARLSWTAPDAAFDSFFIGYLEPQPPGEAIALYVPGSERSYDLTGLKPGTEYNVTIQGVKGGFPSEPLVAHFTT
B3: CD71-binding FN3 domain of SEQ ID NO: 264 (designed binder)
chain: B2 chain with A87V
B4: CD71-binding FN3 domain of SEQ ID NO: 972 (designed binder)
chain: B2 chain with V76A, A87V
B5: CD71-binding FN3 domain of SEQ ID NO: 234 conjugated to KRAS2 siRNA (designed binder)
chain: B2 chain
modifications: conjugated to KRAS2 tool siRNA; site and linker not stated
B6: CD71-binding FN3 domain of SEQ ID NO: 264 conjugated to KRAS2 siRNA (designed binder)
chain: B2 chain with A87V
modifications: conjugated to KRAS2 tool siRNA; site and linker not stated
B7: CD71-binding FN3 domain of SEQ ID NO: 972 conjugated to KRAS2 siRNA (designed binder)
chain: B2 chain with V76A, A87V
modifications: conjugated to KRAS2 tool siRNA; site and linker not stated
B8: CD71-binding FN3 domain of SEQ ID NO: 270 conjugated to KRAS2 siRNA (designed binder)
chain: B2 chain with A48H, V86I, H88N, F89S
modifications: conjugated to KRAS2 tool siRNA; site and linker not stated
B9: CD71-binding FN3 domain of SEQ ID NO: 281 conjugated to KRAS2 siRNA (designed binder)
chain: B2 chain with V86I, H88N
modifications: conjugated to KRAS2 tool siRNA; site and linker not stated
B10: CD71-binding FN3 domain of SEQ ID NO: 290 conjugated to KRAS2 siRNA (designed binder)
chain: B2 chain with A48H, H88T
modifications: conjugated to KRAS2 tool siRNA; site and linker not stated
B11: CD71-binding FN3 domain of SEQ ID NO: 293 conjugated to KRAS2 siRNA (designed binder)
chain: B2 chain with A48D, E83H, H88T
modifications: conjugated to KRAS2 tool siRNA; site and linker not stated
B12: CD71-binding FN3 domain of SEQ ID NO: 295 conjugated to KRAS2 siRNA (designed binder)
chain: B2 chain with A48D, H88T
modifications: conjugated to KRAS2 tool siRNA; site and linker not stated
B13: CD71-binding FN3 domain of SEQ ID NO: 331 conjugated to KRAS2 siRNA (designed binder)
chain: B2 chain with A48H, G78V, V86I, H88N
modifications: conjugated to KRAS2 tool siRNA; site and linker not stated
B14: CD71-binding FN3 domain of SEQ ID NO: 973 conjugated to KRAS2 siRNA (designed binder)
chain: B2 chain with A48H, V71G, G78V, V86I, H88N
modifications: conjugated to KRAS2 tool siRNA; site and linker not stated
B15: CD71-binding FN3 domain of SEQ ID NO: 333 conjugated to KRAS2 siRNA (designed binder)
chain: B2 chain with K7E, E83L, H88T
modifications: conjugated to KRAS2 tool siRNA; site and linker not stated
B16: CD71-binding FN3 domain of SEQ ID NO: 974 conjugated to KRAS2 siRNA (designed binder)
chain: B2 chain with E83L, H88T
modifications: conjugated to KRAS2 tool siRNA; site and linker not stated
B17: CD71-binding FN3 domain of SEQ ID NO: 335 conjugated to KRAS2 siRNA (designed binder)
chain: B2 chain with A48D, E83L, H88T
modifications: conjugated to KRAS2 tool siRNA; site and linker not stated
B18: CD71-binding FN3 domain of SEQ ID NO: 341 conjugated to KRAS2 siRNA (designed binder)
chain: B2 chain with A48E, E83L, H88I
modifications: conjugated to KRAS2 tool siRNA; site and linker not stated
B19: CD71-binding FN3 domain of SEQ ID NO: 343 conjugated to KRAS2 siRNA (designed binder)
chain: B2 chain with Y50W, H88T
modifications: conjugated to KRAS2 tool siRNA; site and linker not stated
B20: CD71-binding FN3 domain of SEQ ID NO: 114 (designed binder)
chain: MLPAPKNLVVSRVTEDSARLSWTAPDAAFDSFHIVYHEPRPSGEAIWLFVPGSERSYDLTGLKPGTEYEVGIVSVKGGDLSVPLSAIFTT
notes: Screen 1 hit, tested from colonies in the primary ELISA; not shown: C-terminal poly-histidine tag added to each FN3 domain
B21: CD71-binding FN3 domain of SEQ ID NO: 219 (designed binder)
chain: MSLPAPKNLVVSRVTEDSARLSWTAPDAAFDSFAIMYGERGNPGEAIVLTVPGSERSYDLTGLKPGTEYAVWIYGVKGGNYSYPLSAIFTT
notes: the tag is not included in the chain
B22: CD71-binding FN3 domain of SEQ ID NO: 225 (designed binder)
chain: MSLPAPKNLVVSRVTEDSARLSWTAPDAAFDSFEIGYFENLYLGEAIVLTVPGSERSYDLTGLKPGTEYWVQIGGVKGGNWSAPLSAIFTT
B23: CD71-binding FN3 domain of SEQ ID NO: 220 (designed binder)
chain: B22 chain with G36A, F38W, N40Q, L41S, L43T
B24: CD71-binding FN3 domain of SEQ ID NO: 223 (designed binder)
chain: B22 chain with G36A, N40R, L41T, Y42W, L43F, Q72A, N80L, A83L, A87V
B25: CD71-binding FN3 domain of SEQ ID NO: 224 (designed binder)
chain: B22 chain with F38W, L41A, L43K, W70V, Q72F, N80G, A83G
B26: CD71-binding FN3 domain of SEQ ID NO: 226 (designed binder)
chain: B22 chain with V11I, Q72A, N80L, A83L
B27: CD71-binding FN3 domain of SEQ ID NO: 228 (designed binder)
chain: B22 chain with F38W, L41A, L43K, W70V, Q72F, N80V, A83K, A87V
B28: CD71-binding FN3 domain of SEQ ID NO: 230 (designed binder)
chain: B22 chain with V10I, F33L
B29: CD71-binding FN3 domain of SEQ ID NO: 232 (designed binder)
chain: MSLPAPKNLVVSRVTEDSARLSWTAPDAAFDSFEISYWEHTFNGEAIILFVPGSERSYDLTGLKPGTEYVVFIGGVKGGVWSVPLSAIFTT
B30: CD71-binding FN3 domain of SEQ ID NO: 233 (designed binder)
chain: B22 chain with E34F, F38L, N40P, L41Q, Y42P, L43P, V48H, T50S
B31: CD71-binding FN3 domain of SEQ ID NO: 222 (designed binder)
chain: B2 chain with A48T, E83G, V86I, H88S
B32: CD71-binding FN3 domain of SEQ ID NO: 221 (designed binder)
chain: B2 chain with Q41R, A48H, V71I, E83I, V86I, H88S
B33: CD71-binding FN3 domain of SEQ ID NO: 231 (designed binder)
chain: B2 chain with A48H, Y50F, V86I, H88N, F89S
B34: CD71-binding FN3 domain of SEQ ID NO: 227 (designed binder)
chain: MSLPAPKNLVVSRVTEDSARLSWTAPDAAFDSFEIAYAELSTGEAIVLTVPGSERSYDLTGLKPGTEYYVHIGGVKGGSWSIPLSAIFTT
B35: CD71-binding FN3 domain of SEQ ID NO: 229 (designed binder)
chain: MSLPAPKNLVVSRVTEDSARLSWTAPDAAFDSFSIMYAEQKVNGEAIVLTVPGSERSYDLTGLKPGTEYLVLIWGVKGGGRSLPLSAIFTT

Tests used:
[1] = target: T1, human CD71 on cells (SKBR3; SW620-rLuc-KRAS) (human, UniProt P02786 1-760); assay: cell-based or functional assay
T1 sequence (P02786 whole entry, the tested form may be a part): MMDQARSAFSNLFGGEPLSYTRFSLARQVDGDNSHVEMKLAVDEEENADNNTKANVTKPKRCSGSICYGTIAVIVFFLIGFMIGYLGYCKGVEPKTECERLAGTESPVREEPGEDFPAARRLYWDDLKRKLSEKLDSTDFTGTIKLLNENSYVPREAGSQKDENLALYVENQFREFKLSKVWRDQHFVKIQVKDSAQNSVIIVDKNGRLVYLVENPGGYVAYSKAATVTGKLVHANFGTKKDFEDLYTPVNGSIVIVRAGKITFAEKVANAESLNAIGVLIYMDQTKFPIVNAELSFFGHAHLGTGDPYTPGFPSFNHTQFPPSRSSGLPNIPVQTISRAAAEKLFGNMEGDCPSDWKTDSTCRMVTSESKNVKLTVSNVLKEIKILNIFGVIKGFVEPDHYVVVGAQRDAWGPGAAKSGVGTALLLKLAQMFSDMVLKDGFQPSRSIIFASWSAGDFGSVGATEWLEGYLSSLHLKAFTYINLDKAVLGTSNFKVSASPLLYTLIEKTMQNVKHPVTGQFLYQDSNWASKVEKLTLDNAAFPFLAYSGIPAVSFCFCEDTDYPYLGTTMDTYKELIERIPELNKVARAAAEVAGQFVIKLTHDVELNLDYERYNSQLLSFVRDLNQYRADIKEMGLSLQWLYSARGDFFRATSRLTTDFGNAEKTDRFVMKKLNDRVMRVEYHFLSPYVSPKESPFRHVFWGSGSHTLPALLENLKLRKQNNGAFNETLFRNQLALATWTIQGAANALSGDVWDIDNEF

[2] = target: T2, human CD71 extracellular domain (CD71-ECD) (human, UniProt P02786 89-760); assay: capture ELISA, 20 nM antigen on Neutravidin plate, FN3 titrated 250 to 0.3 nM
T2 construct: It was captured on a Neutravidin plate; also called hCD71; transferrin receptor 1 ECD
T2 sequence (P02786 89-760): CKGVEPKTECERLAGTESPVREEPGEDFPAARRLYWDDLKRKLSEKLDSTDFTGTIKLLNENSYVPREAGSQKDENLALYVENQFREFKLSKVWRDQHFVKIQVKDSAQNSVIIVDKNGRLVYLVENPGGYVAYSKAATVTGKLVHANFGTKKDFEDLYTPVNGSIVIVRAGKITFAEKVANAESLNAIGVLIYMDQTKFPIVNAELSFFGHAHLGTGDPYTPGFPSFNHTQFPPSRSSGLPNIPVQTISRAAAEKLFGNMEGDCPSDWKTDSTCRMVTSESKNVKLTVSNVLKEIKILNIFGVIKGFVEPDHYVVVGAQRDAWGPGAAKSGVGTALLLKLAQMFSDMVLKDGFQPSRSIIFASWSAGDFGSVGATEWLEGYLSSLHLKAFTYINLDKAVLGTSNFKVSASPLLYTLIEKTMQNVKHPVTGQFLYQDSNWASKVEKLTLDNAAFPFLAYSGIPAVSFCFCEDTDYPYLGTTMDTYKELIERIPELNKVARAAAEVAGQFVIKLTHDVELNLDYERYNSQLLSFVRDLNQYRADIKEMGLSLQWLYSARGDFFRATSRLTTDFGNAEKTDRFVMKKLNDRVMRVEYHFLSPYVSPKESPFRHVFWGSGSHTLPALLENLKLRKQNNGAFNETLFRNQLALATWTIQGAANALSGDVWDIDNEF
Protocol: Select CD71-binding FN3 domains identified in Example 4 above were chosen to determine their binding to both human and cynomolgus monkey CD71 extracellular domain (CD71-ECD). Capture ELISA using CD71 binding to FN3 domains was performed, with the FN3 domains being titrated from 250 nM to 0.3 nM. 20 nM of antigen was incubated on a Neutravidin® plate for 1 hour at room temperature. The FN3 domains were incubated for 16 hours at room temperature.

[3] = target: T1, human CD71 on cells (SKBR3; …); assay: cell-based or functional assay; remark: listed apart in the source
[4] = target: T1, human CD71 on cells (SKBR3; …); assay: cell-based or functional assay; remark: listed apart in the source
[5] = target: T3, human CD71 extracellular domain (human, UniProt P02786 89-760); assay: primary ELISA of colonies, luminescence
T3 construct: also called hCD71; human CD71-ECD

[6] = target: T4, apical domain of human CD71 (human, UniProt P02786 189-383, limits assumed); assay: primary ELISA of colonies, luminescence
T4 construct: domain: apical domain; the panning antigen was 30% biotinylated; also called human apical domain of CD71
T4 sequence (P02786 189-383 limits assumed): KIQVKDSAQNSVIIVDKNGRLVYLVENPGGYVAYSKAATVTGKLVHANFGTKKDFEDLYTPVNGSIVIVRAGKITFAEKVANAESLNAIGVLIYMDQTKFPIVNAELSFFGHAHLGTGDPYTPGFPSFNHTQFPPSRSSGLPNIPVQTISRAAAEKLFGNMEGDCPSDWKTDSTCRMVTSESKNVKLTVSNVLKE

[7] = target: T3, human CD71 extracellular domain; assay: primary ELISA; signal on hCD71 over signal on HSA
[8] = target: T4, apical domain of human CD71; assay: primary ELISA; signal on apical domain over signal on HSA
[9] = target: T5, human CD71 extracellular domain (human, UniProt P02786 89-760); assay: primary ELISA, luminescence
T5 construct: also called hCD71; human CD71-ECD

[10] = target: T6, apical domain of cynomolgus CD71 (cynomolgus, UniProt A0A2K5X958 189-383); assay: primary ELISA, luminescence
T6 construct: domain: apical domain; also called Cyno apical domain
T6 sequence (A0A2K5X958 entry or part of it): as the sequence (P02786 189-383 limits assumed) above, with R20G, Y59D, T60S, N104K, E106D, R137Q, R176K, S182N, N184S counted along it

[11] = target: T5, human CD71 extracellular domain; assay: primary ELISA, ratio of signal to HSA control
[12] = target: T6, apical domain of cynomolgus CD71; assay: primary ELISA, ratio of signal to HSA control

Binder	LSA EC50 (luciferase reporter assay, SW620-rLuc-KRAS cells, 72 h) [4]	RLU [9]	RLU [10]	hCD71:HSA [11]	Cyno apical domain:HSA [12]	also measured
B1	–	–	–	–	–	CTG EC50 (CellTiter-Glo luminescent assay, SKBR3 cells, 72 h) [1]: 14400 pM; EC50 [2]: 10000 pM
B2	–	–	–	–	–	CTG EC50 (CellTiter-Glo luminescent assay, SKBR3 cells, 72 h) [3]: 70 pM
B3	–	–	–	–	–	CTG EC50 (CellTiter-Glo luminescent assay, SKBR3 cells, 72 h) [3]: 160 pM
B4	–	–	–	–	–	CTG EC50 (CellTiter-Glo luminescent assay, SKBR3 cells, 72 h) [3]: 40 pM
B5	630 pM	–	–	–	–	–
B6	450 pM	–	–	–	–	–
B7	490 pM	–	–	–	–	–
B8	2100 pM	–	–	–	–	–
B9	390 pM	–	–	–	–	–
B10	570 pM	–	–	–	–	–
B11	540 pM	–	–	–	–	–
B12	470 pM	–	–	–	–	–
B13	750 pM	–	–	–	–	–
B14	480 pM	–	–	–	–	–
B15	580 pM	–	–	–	–	–
B16	530 pM	–	–	–	–	–
B17	470 pM	–	–	–	–	–
B18	670 pM	–	–	–	–	–

Binder	LSA EC50 (luciferase reporter assay, SW620-rLuc-KRAS cells, 72 h) [4]	RLU [9]	RLU [10]	hCD71:HSA [11]	Cyno apical domain:HSA [12]	also measured
B19	640 pM	–	–	–	–	–
B20	–	–	–	–	–	hCD71, RLU [5]: 1.5e+06 RLU; Apical domain, RLU [6]: 3.59e+06 RLU; hCD71:HSA [7]: 130 ratio; Apical domain:HSA [8]: 311 ratio
B21	–	3.01e+06 RLU	4.58e+06 RLU	66	101	–
B22	–	2.43e+06 RLU	4.22e+06 RLU	191	331	–
B23	–	2.43e+06 RLU	4.69e+06 RLU	388	751	–
B24	–	2.25e+06 RLU	4.11e+06 RLU	26	47	–
B25	–	3.1e+06 RLU	4.79e+06 RLU	74	115	–
B26	–	3.1e+06 RLU	4.33e+06 RLU	20	28	–
B27	–	2.66e+06 RLU	4.86e+06 RLU	133	242	–
B28	–	2.54e+06 RLU	4.73e+06 RLU	151	282	–
B29	–	3.58e+06 RLU	5.41e+06 RLU	195	295	–
B30	–	2.69e+06 RLU	4.78e+06 RLU	202	359	–
B31	–	5.78e+06 RLU	6.01e+06 RLU	215	223	–
B32	–	5.75e+06 RLU	6.08e+06 RLU	176	186	–
B33	–	4.93e+06 RLU	5.52e+06 RLU	56	63	–
B34	–	2.62e+06 RLU	4.23e+06 RLU	30	49	–
B35	–	3.42e+06 RLU	4.52e+06 RLU	90	119	–
